Test results as given in US20020122804.

What was measured:
[1] = target: BSA (Fraction V, Sigma), P02769
[2] = target: T1, hyphal wall protein 1 (Hwp1) on C. albicans germ tube surfaces, P46593
T1 chain: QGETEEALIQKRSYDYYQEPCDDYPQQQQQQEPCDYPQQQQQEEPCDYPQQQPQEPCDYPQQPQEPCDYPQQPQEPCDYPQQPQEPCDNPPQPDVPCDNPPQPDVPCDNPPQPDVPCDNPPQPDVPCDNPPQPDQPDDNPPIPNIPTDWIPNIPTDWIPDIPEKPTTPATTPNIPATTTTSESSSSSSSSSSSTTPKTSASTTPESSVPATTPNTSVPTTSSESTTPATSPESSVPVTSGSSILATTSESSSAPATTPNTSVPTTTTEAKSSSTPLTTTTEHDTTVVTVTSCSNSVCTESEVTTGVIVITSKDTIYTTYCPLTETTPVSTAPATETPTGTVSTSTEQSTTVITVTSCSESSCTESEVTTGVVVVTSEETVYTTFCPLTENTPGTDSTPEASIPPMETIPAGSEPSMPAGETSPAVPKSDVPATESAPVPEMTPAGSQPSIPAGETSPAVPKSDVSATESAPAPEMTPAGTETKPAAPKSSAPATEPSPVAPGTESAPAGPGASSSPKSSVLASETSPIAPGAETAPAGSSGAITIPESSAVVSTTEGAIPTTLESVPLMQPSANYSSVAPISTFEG

Chain of BSA (Fraction V, Sigma), P02769 (P02769 25-607): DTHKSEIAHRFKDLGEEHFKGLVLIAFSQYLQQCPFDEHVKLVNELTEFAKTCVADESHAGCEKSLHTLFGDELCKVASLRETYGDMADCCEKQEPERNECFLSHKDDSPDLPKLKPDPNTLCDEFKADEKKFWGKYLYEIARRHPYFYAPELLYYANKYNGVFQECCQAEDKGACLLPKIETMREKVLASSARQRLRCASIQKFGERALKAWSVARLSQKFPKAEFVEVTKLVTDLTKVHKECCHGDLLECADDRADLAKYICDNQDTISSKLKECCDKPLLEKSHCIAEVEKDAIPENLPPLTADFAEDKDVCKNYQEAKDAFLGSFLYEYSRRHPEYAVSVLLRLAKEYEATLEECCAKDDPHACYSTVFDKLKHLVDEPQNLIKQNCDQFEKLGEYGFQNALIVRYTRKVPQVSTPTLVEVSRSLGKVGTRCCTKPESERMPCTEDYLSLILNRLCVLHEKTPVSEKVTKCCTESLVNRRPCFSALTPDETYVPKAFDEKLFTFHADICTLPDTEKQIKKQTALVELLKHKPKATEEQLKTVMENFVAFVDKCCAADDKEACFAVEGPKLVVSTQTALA

B1: guinea pig liver transglutaminase (protein)
chain: AEDLILERCDLQLEVNGRDHRTADLCRERLVLRRGQPFWLTLHFEGRGYEAGVDTLTFNAVTGPDPSEEAGTMARFSLSSAVEGGTWSASAVDQQDSTVSLLLSTPADAPIGLYRLSLEASTGYQGSSFVLGHFILLYNPRCPADAVYMDSDQERQEYVLTQQGFIYQGSAKFINGIPWNFGQFEDGILDICLMLLDTNPKFLKNAGQDCSRRSRPVYVGRVVSAMVNCNDDQGVLQGRWDNNYSDGVSPMSWIGSVDILRRWKDYGCQRVKYGQCWVFAAVACTVLRCLGIPTRVVTNFNSAHDQNSNLLIEYFRNESGEIEGNKSEMIWNFHCWVESWMTRPDLEPGYEGWQALDPTPQEKSEGTYCCGPVPVRAIKEGHLNVKYDAPFVFAEVNADVVNWIRQKDGSLRKSINHLVVGLKISTKSVGRDEREDITHTYKYPEGSEEEREAFVRANHLNKLATKEEAQEETGVAMRIRVGQNMTMGSDFDIFAYITNGTAESHECQLLLCARIVSYNGVLGPVCSTNDLLNLTLDPFSENSIPLHILYEKYGDYLTESNLIKVRGLLIEPAANSYVLAERDIYLENPEIKIRVLGEPKQNRKLIAEVSLKNPLPVPLLGCIFTVEGAGLTKDQKSVEVPDPVEAGEQAKVRVDLLPTEVGLHKLVVNFECDKLKAVKGYRNVIIGPA
Question: Which “[14C]-putrescine cross-linking detected by SDS-PAGE and fluorography” value [1] does the source give for B1 here?
Answer: The value was “no evidence of cross-linking of [^14C]-putrescine to transglutaminase itself or to BSA was seen”.

Question: What about the “transglutaminase-mediated incorporation of [14C]-putrescine (TCA-precipitable counts)” value [1] of the same protein?
Answer: Its value is “BSA served as a negative control”.

Question: What about the “transglutaminase-mediated incorporation of [14C]-putrescine (TCA-precipitable counts)” value (N,N' dimethylcasein) of the same protein?
Answer: Its value is “Incorporation of [^14C]-putrescine by rHwp1?C37 was equivalent to that of casein, a known substrate of transglutaminases”.

Question: And the “transglutaminase-mediated incorporation of a biotinylated lysine analogue into germ tubes (avidin-FITC fluorescence)” value [2]?
Answer: The value was “Transglutaminase-mediated incorporation of a lysine analogue in the homozygous hwp1/hwp1 mutant strain CAH7-1A (FIG. 2E) was nearly absent as shown by the marked decrease in fluorescence compared to SC5314, CAI4, and CAH7”.

Question: And the “[14C]-putrescine cross-linking detected by SDS-PAGE and fluorography” value (rHwp1ΔC37, P46593)?
Answer: Its value is “[^14C]-putrescine cross-linking to rHwp1?C37 detected by SDS-PAGE and fluorography required active transglutaminase”.

Question: And the “transglutaminase-mediated incorporation of [14C]-putrescine (TCA-precipitable counts)” value (rHwp1ΔC37, P46593)?
Answer: Its value is “Incorporation of [^14C]-putrescine by rHwp1?C37 was equivalent to that of casein, a known substrate of transglutaminases”.
